The values that follow come from patent publication US20230265179A1 (TWIST BIOSCIENCE, published 2023).

Numbering of substitutions follows the chain as printed.

The target of the experiment is T1, IL1RL2 over-expressed on Expi293 cells (UniProt Q9HB29 20-575, limits assumed).
T1 construct: whole, on cells; Target of the flow cytometry assay; MFI ratio is over-expressing cells over parent cells
T1 sequence (looked up): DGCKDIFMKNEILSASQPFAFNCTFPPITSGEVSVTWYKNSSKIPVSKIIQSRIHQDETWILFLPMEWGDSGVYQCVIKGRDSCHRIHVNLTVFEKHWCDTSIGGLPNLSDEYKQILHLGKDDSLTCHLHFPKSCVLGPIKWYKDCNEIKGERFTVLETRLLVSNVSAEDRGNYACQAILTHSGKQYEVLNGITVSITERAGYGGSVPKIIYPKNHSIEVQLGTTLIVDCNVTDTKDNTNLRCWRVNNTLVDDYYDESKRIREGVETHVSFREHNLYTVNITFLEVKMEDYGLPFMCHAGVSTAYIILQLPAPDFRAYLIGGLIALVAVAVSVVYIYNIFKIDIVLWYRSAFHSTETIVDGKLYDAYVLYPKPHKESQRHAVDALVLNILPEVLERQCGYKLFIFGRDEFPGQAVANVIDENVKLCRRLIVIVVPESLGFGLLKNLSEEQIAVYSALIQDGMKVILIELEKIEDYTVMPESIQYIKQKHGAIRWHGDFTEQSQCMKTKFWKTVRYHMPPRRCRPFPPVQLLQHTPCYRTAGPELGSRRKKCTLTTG
The experiment in a line: flow cytometry, over-expressing Expi293 vs parent cells, 100 nM antibody.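 Note: ratio is mean fluorescence intensity on over-expressing Expi293 cells divided by that measured on parental Expi293 cells.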

Experimental: All incubations and washes were in buffer containing PBS+1% BSA. MFI Ratio is defined by the mean fluorescence intensity (MFI) of the cytokine over-expressing Expi293 cell over the Expi293 parent cell. […] EC50 was calculated in GraphPad Prism.

B1: IL1RL2-167 (antibody, V domains shown)
VH: EVQLLESGGGLVQPGGSLRLSCAASGFTFSNYGVSWVRQAPGKGLEWVSGITRSGSTNYRDSVKGRFTISRDNSKNTLYLQMNSLRAEDTAVYYCAKGRRIFDYWGQGTLVTVSS
VL: DIQMTQSPSSLSASVGDRVTITCSGDKLGHTYTSWYQQKPGKAPKLLIYGKKNRPSGVPSRFSGSGSGTDFTLTISSLQPEDFATYYCQQSYSTPGITFGQGTKVEIK
notes: IgG2
With B1, the “100 nM FACS (MFI Ratio)” value is 3.08.

B2: IL1RL2-158 (antibody, V domains shown)
VH: EVQLLESGGGLVQPGGSLRLSCAASGFTFSSYFMSWVRQAPGKGLEWVSEISPSGSETYYADSVKGRFTISRDNSKNTLYLQMNSLRAEDTAVYYCARAYSSGWSLPFDYWGQGTLVTVSS
VL: DIQMTQSPSSLSASVGDRVTITCRASQGVRTSLAWYQQKPGKAPKLLIYATSTLQSGVPSRFSGSGSGTDFTLTISSLQPEDFATYYCAQGLRKPKTFGQGTKVEIK
notes: IgG2
B2: the “100 nM FACS (MFI Ratio)” value worked out at 14.8.

B3: IL1RL2-40 (VHH)
VHH: EVQLVESGGGLVQPGGSLRLSCAASGFTFSTYTMGWFRQAPGKEREFVAGIAWNGASGTLTSYADSVKGRFTISADNSKNTAYLQMNSLKPEDTAVYYCASAGRWGQGTLVTVSS
notes: VHH-Fc based on IgG2 Fc
Turning to B3, the “100 nM FACS (MFI Ratio)” value stood at 31.

B4: IL1RL2-33 (VHH)
VHH: EVQLVESGGGLVQPGGSLRLSCAASGRSFNLYYMGWFRQAPGKEREFVASIFTDDGDSYYADSVKGRFTISADNSKNTAYLQMNSLKPEDTAVYYCAAGAGWAGTMTDYNWGQGTLVTVSS
notes: VHH-Fc based on IgG2 Fc
For the molecule B4, the “100 nM FACS (MFI Ratio)” value was determined as 15.2.

B5: IL1RL2-53 (VHH)
VHH: EVQLVESGGGLVQPGGSLRLSCAASGSTFSPNVMGWFRQAPGKEREFVAAITWSGSSTTEYADSVKGRFTISADNSKNTAYLQMNSLKPEDTAVYYCAAANEYWVYVNPNRYTWGQGTLVTVSS
notes: VHH-Fc based on IgG2 Fc
Regarding B5, the “100 nM FACS (MFI Ratio)” value worked out at 4.14.

B6: IL1RL2-26 (VHH)
VHH: EVQLVESGGGLVQPGGSLRLSCAASGSIFSIYDMGWFRQAPGKEREFVAAISGWSGGRTSYADSVKGRFTISADNSKNTAYLQMNSLKPEDTAVYYCAAIAYEEGVYRWDWGQGTLVTVSS
notes: VHH-Fc based on IgG2 Fc
Turning to B6, the “100 nM FACS (MFI Ratio)” value was 39.5.

B7: IL1RL2-46 (VHH)
VHH: EVQLVESGGGLVQPGGSLRLSCAASGFTLGDYVMGWFRQAPGKEREFVATIRWGTTDTYYADSVKGRFTISADNSKNTAYLQMNSLKPEDTAVYYCQSWYYDILTGYSDYYYMDVWGQGTLVTVSS
notes: VHH-Fc based on IgG2 Fc
Turning to B7, the “100 nM FACS (MFI Ratio)” value was 15.6.

B8: IL1RL2-42 (VHH)
VHH: EVQLVESGGGLVQPGGSLRLSCAASGRTFSSYDMGWFRQAPGKEREFVAAIVWIGGRTYYADSVKGRFTISADNSKNTAYLQMNSLKPEDTAVYYCADVNGDWGQGTLVTVSS
notes: VHH-Fc based on IgG2 Fc
On to B8, for which the “100 nM FACS (MFI Ratio)” value was found to be 2.47.

B9: IL1RL2-48 (VHH)
VHH: B8 VHH with F47L, V52T, I54N, G55S, R57S, Y59L
notes: VHH-Fc based on IgG2 Fc
As for B9, the “100 nM FACS (MFI Ratio)” value turned out to be 7.83.

B10: IL1RL2-44 (VHH)
VHH: B8 VHH with T28S, S31T, F47L, V52S, I54S, R57S
notes: VHH-Fc based on IgG2 Fc
As for B10, the “100 nM FACS (MFI Ratio)” value was 0.95.

B11: IL1RL2-56 (VHH)
VHH: B8 VHH with S31T, V52S, I54G, R57L, Y59V
notes: VHH-Fc based on IgG2 Fc
As for B11, the “100 nM FACS (MFI Ratio)” value turned out to be 3.83.

B12: IL1RL2-45 (VHH)
VHH: EVQLVESGGGLVQPGGSLRLSCAASGFDFSVSWMGWFRQAPGKEREFVGSIDWITTNIYYADSVKGRFTISADNSKNTAYLQMNSLKPEDTAVYYCAANIEAGTTKSQGWGQGTLVTVSS
notes: VHH-Fc based on IgG2 Fc
In the case of B12, the “100 nM FACS (MFI Ratio)” value was 6.82.

B13: IL1RL2-178 (antibody, V domains shown)
VH: EVQLLESEGGLVQPGGSLRLSCAASGFTFSGYDMQWVRQAPGKGLEWVSSISSTGFKTYYADSVKGRFTISRDNSKNTLYLQMNSLRAEDTAVYYCAKAGPPFAGSRGNSFDYWGQGTLVTVSS
VL: DIQMTQSPSSLSASVGDRVTITCSGDNLRGYYASWYQQKPGKAPKLLIYGTSDLQSGVPSRFSGSGSGTDFTLTISSLQPEDFATYYCYSRDRSGNHLGMFGQGTKVEIK
notes: IgG2
For B13, the “100 nM FACS (MFI Ratio)” value came out at 37.

B14: IL1RL2-51 (VHH)
VHH: EVQLVESGGGLVQPGGSLRLSCAASGFTFSPSWMGWFRQAPGKEREWVSSIDYSAEDTYYADSVKGRFTISADNSKNTAYLQMNSLKPEDTAVYYCAAFDGYSGSDWGQGTLVTVSS
B14: the “100 nM FACS (MFI Ratio)” value was found to be 9.68.

B15: IL1RL2-156 (antibody, V domains shown)
VH: EVQLLESGGGLVQPGGSLRLSCAASGFTFSSYWNHWVRQAPGKGLEWVSTIGPSGTSTYYADSVKGRFTISRDNSKNTLYLQMNSLRAEDTAVYYCAKSTPNIPLAYWGQGTLVTVSS
VL: DIQMTQSPSSLSASVGDRVTITCRASQSIRRYLNWYQQKPGKAPKLLIYDASSSQSGVPSRFSGSGSGTDFTLTISSLQPEDFATYYCQQSTILPLTFGQGTKVEIK
notes: IgG2
In the case of B15, the “100 nM FACS (MFI Ratio)” value amounted to 0.69.

B16: IL1RL2-52 (VHH)
VHH: EVQLVESGGGLVQPGGSLRLSCAASGRTSTYDMGWFRQAPGKEREFVGAISWSGGLTSYADSVKGRFTISADNSKNTAYLQMNSLKPEDTAVYYCADVNGDWGQGTLVTVSS
notes: VHH-Fc based on IgG2 Fc
For B16, the “100 nM FACS (MFI Ratio)” value amounted to 6.88.

B17: IL1RL2-176 (antibody, V domains shown)
VH: EVQLLESGGGLVQPGGSLRLSCAASGFTFSNSYISWVRQAPGKGLEWVSSIRGSSSSTYYADSVKGRFTISRDNSKNTLYLQMNSLRAEDTAVYYCARSYGGGFDYWGQGTLVTVSS
VL: DIQMTQSPSSLSASVGDRVTITCSGDNLRGYYASWYQQKPGKAPKLLIYQNDKRPSGVPSRFSGSGSGTDFTLTISSLQPEDFATYYCFQGSHAPLTFGQGTKVEIK
notes: IgG2
Turning to B17, the “100 nM FACS (MFI Ratio)” value is 0.72.

B18: IL1RL2-16 (VHH)
VHH: EVQLVESGGGLVQPGGSLRLSCAASGSDFSIKAMGWFRQAPGKEREFVADIYTSTTTNYTNYADSVKGRFTISADNSKNTAYLQMNSLKPEDTAVYYCAAIAYEEGVYRWDWGQGTLVTVSS
notes: VHH-Fc based on IgG2 Fc
B18: the “100 nM FACS (MFI Ratio)” value came out at 37.6.

B19: IL1RL2-32 (VHH)
VHH: B18 VHH with S27N, Y103H
notes: VHH-Fc based on IgG2 Fc
Regarding B19, the “100 nM FACS (MFI Ratio)” value was determined as 20.1.

B20: IL1RL2-47 (VHH)
VHH: EVQLVESGGGLVQPGGSLRLSCAASGGTFSNYAMGWFRQAPGKEREFVAAIGGVTDYADSVKGRFTISADNSKNTAYLQMNSLKPEDTAVYYCAAFAYEEGVYRWDWGQGTLVTVSS
notes: VHH-Fc based on IgG2 Fc
With B20, the “100 nM FACS (MFI Ratio)” value amounted to 13.2.

B21: IL1RL2-50 (VHH)
VHH: EVQLVESGGGLVQPGGSLRLSCAASGSIFSIDAMGWFRQAPGKERESVAIIKTDGSTYYADSVKGRFTISADNSKNTAYLQMNSLKPEDTAVYYCAHRLGYCSGGSCYWPNYFDYWGQGTLVTVSS
notes: VHH-Fc based on IgG2 Fc
In the case of B21, the “100 nM FACS (MFI Ratio)” value is 151.

B22: IL1RL2-173 (antibody, V domains shown)
VH: EVQLLESGGGLVQPGGSLRLSCAASGFTFSEYGMWWVRQAPGKGLEWVSEISPSGGYTYYADSVKGRFTISRDNSKNTLYLQMNSLRAEDTAVYYCAEQDVKGSSSFDYWGQGTLVTVSS
VL: DIQMTQSPSSLSASVGDRVTITCRPNQNIATYINWYQQKPGKAPKLLIYQMSHLASGVPSRFSGSGSGTDFTLTISSLQPEDFATYYCQQSYSTPSFGQGTKVEIK
notes: IgG2
As for B22, the “100 nM FACS (MFI Ratio)” value came to 11.2.

B23: IL1RL2-38 (VHH)
VHH: EVQLVESGGGLVQPGGSLRLSCAASGRSRYGMGWFRQAPGKEREFVAAINWNGASTYYADSVKGRFTISADNSKNTAYLQMNSLKPEDTAVYYCAVSQPLNYYTYYDARRYDWGQGTLVTVSS
notes: VHH-Fc based on IgG2 Fc
As to B23, the “100 nM FACS (MFI Ratio)” value was 7.41.

B24: IL1RL2-162 (antibody, V domains shown)
VH: EVQLLESGGGLVQPGGSLRLSCAASGFTFNHYGMGWVRQAPGKGLEWVSSIGANGAPTYYADSVKGRFTISRDNSKNTLYLQMNSLRAEDTAVYYCAKSYLSGTFDYWGQGTLVTVSS
VL: DIQMTQSPSSLSASVGDRVTITCQGGSPRSYYASWYQQKPGKAPKLLIYHTSRLQDGVPSRFSGSGSGTDFTLTISSLQPEDFATYYCQSYDKSNVVFGQGTKVEIK
notes: IgG2
B24: the “100 nM FACS (MFI Ratio)” value was determined as 4.26.

B25: IL1RL2-170 (antibody, V domains shown)
VH: EVQLLESGGGLVQPGGSLRLSCAASGFTFPVYNMAWVRQAPGKGLEWVSSISGYGSTTYYADSVKGRFTISRDNSKNTLYLQMNSLRAEDTAVYYCAKSYGAFDYWGQGTLVTVSS
VL: DIQMTQSPSSLSASVGDRVTITCSASQDINKYLNWYQQKPGKAPKLLIYHTSRLQDGVPSRFSGSGSGTDFTLTISSLQPEDFATYYCQQSYTTPWTFGQGTKVEIK
notes: IgG2
For the molecule B25, the “100 nM FACS (MFI Ratio)” value was 3.95.

B26: IL1RL2-28 (VHH)
VHH: EVQLVESGGGLVQPGGSLRLSCAASGFTLNDYAMGWFRQAPGKEREWVSSINWSGSTYYADSVKGRFTISADNSKNTAYLQMNSLKPEDTAVYYCAKAYSSSWPYFDYWGQGTLVTVSS
notes: VHH-Fc based on IgG2 Fc
For the molecule B26, the “100 nM FACS (MFI Ratio)” value was 13.6.
